Source: patent US20250270319A1 (Alector, published 2025)
Numbering of substitutions follows the chain as printed.

B1: anti-CD33 antibody 6C7H5 (antibody, V domains shown)
VH: EVQLVESGGGLVQPGGSLRLSCAGSGFTFSNYCMNWVRQAPGKGLEWVAEIRLKSNNYVTNYAASVKGRFTISRDDSKNSVYLQMNSLKTEDTGVYYCTRDGYYVPFAYWGQGTLVTVSS
VL: QLVLTQSPSASASLGASVKLTCTLSSQHSTYTIEWYQQQPEKGPRYLMELKKDGSHSTGDGIPDRFSGSSSGAERYLTISSLQSEDEADYYCGVGDTIKEQFVYVFGGGTKLTVL
notes: Humanized 6C7; VH/VL only; also called parental humanized antibody
B2: anti-CD33 antibody 6C7H8 (antibody, IgG1, V domains shown)
VH: B1 VH with D101A
VL: B1 VL with D53E
notes: VH/VL only; also called 6C7H8 IgG1; parental antibody
B3: anti-CD33 antibody 6C7H27 (antibody, V domains shown)
VH: B1 VH with N31D, C33T, D101A
VL: B1 VL with D53E
notes: VH/VL only
B4: anti-CD33 antibody 6C7H22 (antibody, V domains shown)
VH: B1 VH with C33T, D101A
VL: B1 VL with D53E
notes: VH/VL only
B5: anti-CD33 antibody 6C7H13 (antibody, V domains shown)
VH: B1 VH with C33F, D101A
VL: B1 VL with D53E
notes: VH/VL only
B6: anti-CD33 antibody 6C7H30 (antibody, V domains shown)
VH: B1 VH with C33W, D101A
VL: B1 VL with D53E
notes: VH/VL only
B7: anti-CD33 antibody 6C7H19 (antibody, V domains shown)
VH: B1 VH with C33R, D101A
VL: B1 VL with D53E
notes: VH/VL only

What follows are binders tested against T1, human CD33 on primary human dendritic cells (human, UniProt P20138 18-364) (assay: cell-based or functional assay).
T1 sequence (P20138 18-364): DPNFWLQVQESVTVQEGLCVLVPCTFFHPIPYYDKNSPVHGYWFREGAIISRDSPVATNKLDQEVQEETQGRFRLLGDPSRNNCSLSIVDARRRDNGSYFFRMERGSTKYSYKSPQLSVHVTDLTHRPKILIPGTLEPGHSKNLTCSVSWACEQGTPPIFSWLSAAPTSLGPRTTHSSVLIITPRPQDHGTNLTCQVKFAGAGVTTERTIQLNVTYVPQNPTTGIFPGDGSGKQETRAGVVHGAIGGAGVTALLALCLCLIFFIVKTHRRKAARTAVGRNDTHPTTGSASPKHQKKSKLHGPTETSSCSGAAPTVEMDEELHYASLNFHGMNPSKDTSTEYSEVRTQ

Row | Receptor downregulation, (EC50) (pM) | Binder
1 | 42.4 | B1
2 | 77.9 | B2

Biological target: T1, human CD33 on primary human dendritic …
Assay: cell-based or functional assay
Remark: another data set of the same source

Row | Maximal reduction in CD33 (% remaining) | Receptor downregulation, (EC50) (pM) | Fold increase in potency compared to 6C7H5 [fold] | Binder
3 | 21 | 42.4 | – | B1
4 | – | 1520 | 0.03 | B3
5 | 21.5 | 77.9 | 0.5 | B2
6 | – | 1230 | 0.03 | B4
7 | – | 3640 | 0.01 | B5

Biological target: T1, human CD33 on primary human dendritic …
Assay: cell-based or functional assay
Remark: another data set of the same source

Row | Receptor downregulation, (EC50) (pM) | Binder
8 | 42.4 | B1

Biological target: T1, human CD33 on primary human dendritic …
Assay: cell-based or functional assay
Remark: another data set of the same source

Row | Maximal downregulation (% CD33 remaining) | Receptor downregulation, (pM, EC50) [pM] | Binder
9 | 21.5 | 77.9 | B2

The binders below were run against T2, recombinant human CD33 protein (Sino Biologicals) (human, UniProt P20138 18-259) (assay: ELISA, plate coated with recombinant CD33).
T2 construct: Bought protein; also called recombinant CD33
T2 sequence (P20138 18-259 limits assumed): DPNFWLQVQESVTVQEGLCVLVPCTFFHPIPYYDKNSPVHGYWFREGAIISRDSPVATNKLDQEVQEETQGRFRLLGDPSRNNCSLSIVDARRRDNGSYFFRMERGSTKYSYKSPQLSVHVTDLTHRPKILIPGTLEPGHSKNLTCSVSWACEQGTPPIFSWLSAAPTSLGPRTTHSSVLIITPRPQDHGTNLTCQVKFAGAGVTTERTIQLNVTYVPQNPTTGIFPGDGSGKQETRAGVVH

Row | EC50 [nM] | Binder
10 | 0.16 | B1
11 | 0.21 | B2

What follows are binders tested against T3, recombinant cynomolgus CD33 protein (NovoProtein) (cynomolgus) (assay: ELISA, plate coated with recombinant CD33).
T3 construct: Bought protein; also called cyno CD33
T3 sequence (chain, as listed by the source limits assumed): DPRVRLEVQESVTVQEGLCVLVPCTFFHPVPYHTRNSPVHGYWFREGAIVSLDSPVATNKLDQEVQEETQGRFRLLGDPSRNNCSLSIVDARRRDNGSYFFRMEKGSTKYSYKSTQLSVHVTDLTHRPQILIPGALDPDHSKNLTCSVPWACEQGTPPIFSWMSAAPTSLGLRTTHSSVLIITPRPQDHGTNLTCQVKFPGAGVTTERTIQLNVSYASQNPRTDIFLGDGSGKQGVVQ

Row | EC50 [nM] | Relative maximal binding (cyno/human) | Relative potency (human/cyno) | Binder
12 | 3.84 | 0.5 | 0.04 | B1
13 | – | 0.06 | – | B2

These binders were tested against T1, human CD33 on primary human dendritic … (assay: flow cytometry, primary human dendritic cells, 2 ug/mL).

Row | binding relative to the parental antibodies [%] | Binder
14 | < 60 | B3
15 | < 60 | B6
16 | < 60 | B4
17 | < 60 | B5
18 | < 60 | B7

What follows are binders tested against T2, recombinant human CD33 protein (Sino …) (assay: BLI (ForteBio), antibody on anti-human Fc sensor, CD33 10 nM).

Row | Kd [nM] | koff [s⁻¹] | kon [M⁻¹ s⁻¹] | Binder
19 | 0.436 | 0.00012 | 275000 | B1
20 | 2.73 | 0.00365 | 1.34e+06 | B3
21 | 1.27 | 0.0059 | 4.65e+06 | B6
22 | 0.722 | 0.000413 | 572000 | B2
23 | 0.467 | 0.00113 | 2.41e+06 | B4
24 | 3.88 | 0.0031 | 801000 | B5
25 | 0.238 | 0.00114 | 4.79e+06 | B7
